47 sequences from the supplement of paper PMC10899765 can be followed below.

Common to all, as to details: 20 nM; 72 h
In data set [1] the test system is MCF10A. Kind of data set: percent viability (nuclei count relative to siNT); higher = more viable cells. Here is the method: (§1)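 After 72 h, cells were fixed and stained with Hoechst and anti-fibrillarin, and nucleoli per nucleus were counted with CellProfiler. Values are plate-adjusted percent effect for the one-nucleolus and 5+ nucleoli phenotypes, normalised to siNT (0%) and to the positive controls siNOL11 or siKIF11 (100%), as the mean of biological triplicates. Percent viability is the nuclei count relative to siNT.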

For data set [2], the system named is MCF10A. Kind of data set: one-nucleolus phenotype percent effect (relative to siNT 0% and siNOL11 100%); higher = more cells with one nucleolus (ribosome biogenesis inhibition). As for the experimental part:
as §1

In data set [3] the test system is MCF10A. Kind of data set: 5+ nucleoli phenotype percent effect (relative to siNT 0% and siKIF11 100%); higher = more cells with five or more nucleoli. As for the experimental part: as §1

Regarding CUCCUGGGGCCCGCACUCUCGC [hsa-miR-1343], the percent viability with MCF10A [1] is 66.7%. In addition, in the data set with MCF10A [2], the “one-nucleolus phenotype percent effect” value is -9.67%. The “5+ nucleoli phenotype percent effect” value with MCF10A [3] worked out at 7.58%.
For CUCGAGUUGGAAGAGGCG [hsa-miR-4444], in that order: 109%, 19.6% and -29.6%.
For CUCGCCCUGUCUCCCGCUAG [hsa-miR-6726-3p] the same measures were 126%, -28.4% and 66.4%.
For “CUCGGCCGCGGCGCGUAGCCCCCGCC [hsa-miR-4665-3p]”, in that order: 75.2%, -15.1% and 22%.
“CUCGGGAGGGCAUGGGCCAGGC [hsa-miR-6771-5p]”: the percent viability in the data set with MCF10A [1] is 50.5%. For the same sequence, the “one-nucleolus phenotype percent effect” value with MCF10A [2] was -0.506%. Further, the “5+ nucleoli phenotype percent effect” value in the data set on MCF10A [3] is -1.93%.
For the sequence “CUCGGGCGGAGGUGGUUGAGUG [hsa-miR-4750-5p]”, in the data set with MCF10A [1], the percent viability is 40.2%. Besides, the “one-nucleolus phenotype percent effect” value in the data set with MCF10A [2] amounted to 14.8%. Also, the “5+ nucleoli phenotype percent effect” value in the data set on MCF10A [3] was -7.37%.
For “CUCGGGGCAGGCGGCUGGGAGCG [hsa-miR-6727-5p]”, in that order: 74.2%, -15.9% and 19.5%.
For “CUCGUGGGCUCUGGCCACGGCC [hsa-miR-3677-3p]”, in that order: 56.2%, -2.83% and -9.65%.
For “CUCUAGAGGGAAGCACUUUCUC [hsa-miR-518f-5p]” the same measures were 33.5%, 8.67% and 3.35%.
In the case of “CUCUAGAGGGAAGCACUUUCUG [hsa-miR-518d-5p]”, in the data set on MCF10A [1], the percent viability was found to be 57.8%. Also, the “one-nucleolus phenotype percent effect” value with MCF10A [2] is -4.59%. Moreover, the “5+ nucleoli phenotype percent effect” value with MCF10A [3] was found to be 5.06%.
For “CUCUAGAGGGAAGCACUUUCUG [hsa-miR-520c-5p]” the same measures were 82.7%, -6.38% and 17.5%.
In the case of CUCUAGAGGGAAGCACUUUCUG [hsa-miR-526a], the percent viability in the data set on MCF10A [1] stood at 39.9%. Also, the “one-nucleolus phenotype percent effect” value with MCF10A [2] turned out to be 0.562%. Besides, in the data set with MCF10A [3], the “5+ nucleoli phenotype percent effect” value is -7.42%.
Consider “CUCUAGAGGGAAGCGCUUUCUG [hsa-miR-518e-5p]”, for which the percent viability in the data set on MCF10A [1] was 26.7%. Moreover, the “one-nucleolus phenotype percent effect” value with MCF10A [2] is -0.877%. In addition, the “5+ nucleoli phenotype percent effect” value in the data set on MCF10A [3] came to 3.26%.
For “CUCUAGAGGGAAGCGCUUUCUG [hsa-miR-519a-5p]”, in that order: 56.5%, -15.1% and -2.96%.
For “CUCUAGAGGGAAGCGCUUUCUG [hsa-miR-519b-5p]”, in that order: 36.9%, 5.75% and -5.59%.
For “CUCUAGAGGGAAGCGCUUUCUG [hsa-miR-519c-5p]” the same measures were 31.6%, 1.39% and -10.6%.
As for CUCUAGAGGGAAGCGCUUUCUG [hsa-miR-522-5p], the percent viability in the data set on MCF10A [1] stood at 40.6%. Moreover, the “one-nucleolus phenotype percent effect” value in the data set on MCF10A [2] is -5.68%. Further, in the data set with MCF10A [3], the “5+ nucleoli phenotype percent effect” value was determined as 0.209%.
For CUCUAGAGGGAAGCGCUUUCUG [hsa-miR-523-5p] the same measures were 54.8%, 5.46% and -3.36%.
For “CUCUAGCCACAGAUGCAGUGAU [hsa-miR-1287-3p]”, in that order: 17%, 31.4% and -37.2%.
For “CUCUCACCACUGCCCUCCCACAG [hsa-miR-1229-3p]” the same measures were 75.8%, -20.5% and 24.9%.
Regarding “CUCUCUACUGACUUGCAACAUA [hsa-miR-4684-5p]”, the percent viability in the data set on MCF10A [1] is 72.5%. For the same sequence, the “one-nucleolus phenotype percent effect” value with MCF10A [2] was -6.81%. Moreover, in the data set on MCF10A [3], the “5+ nucleoli phenotype percent effect” value came out at 33.1%.
For “CUCUCUGGCCGUCUACCUUCCA [hsa-miR-3191-5p]”, in that order: 31.4%, 46.1% and -62.4%.
For CUCUGAUCGCCCUCUCAGCUC [hsa-miR-3192-3p], in that order: 34.9%, 57.6% and -48.8%.
On to CUCUGGGAAAUGGGACAG [hsa-miR-4314], for which, in the data set on MCF10A [1], the percent viability was 25.6%. In addition, in the data set on MCF10A [2], the “one-nucleolus phenotype percent effect” value stood at 11.2%. Also, the “5+ nucleoli phenotype percent effect” value in the data set on MCF10A [3] is -5.34%.
For CUGAACUAGAGAUUGGGCCCA [hsa-miR-7158-3p], in that order: 32.7%, 16% and -10.2%.
For CUGAAGCUCAGAGGGCUCUGAU [hsa-miR-127-5p] the same measures were 45.5%, 39% and -40.5%.
For CUGAAGUGAUGUGUAACUGAUCAG [hsa-miR-573], in that order: 69%, -6.66% and -8.65%.
With “CUGAAUAGCUGGGACUACAGGU [hsa-miR-5585-3p]”, in the data set with MCF10A [1], the percent viability is 44.1%. For the same sequence, in the data set with MCF10A [2], the “one-nucleolus phenotype percent effect” value is -12.6%. Moreover, the “5+ nucleoli phenotype percent effect” value in the data set with MCF10A [3] was found to be 16.9%.
For CUGACCUAUGAAUUGACAGCC [hsa-miR-192-5p], in that order: 28.2%, 57.2% and -30%.
For “CUGACUGAAUAGGUAGGGUCAUU [hsa-miR-3136-5p]”, in that order: 32.7%, 24.8% and -32.9%.
For the sequence CUGACUGUUGCCGUCCUCCAG [hsa-miR-943], in the data set on MCF10A [1], the percent viability came to 62.9%. Also, in the data set on MCF10A [2], the “one-nucleolus phenotype percent effect” value was -0.183%. The “5+ nucleoli phenotype percent effect” value in the data set on MCF10A [3] was -13.7%.
For CUGAUAAGAACAGAGGCCCAGAU [hsa-miR-3161] the same measures were 34.7%, 18.2% and -24.6%.
On to CUGCAAAGGGAAGCCCUUUC [hsa-miR-518a-5p], for which the percent viability in the data set with MCF10A [1] is 32.4%. Besides, in the data set on MCF10A [2], the “one-nucleolus phenotype percent effect” value stood at 60.3%. Also, the “5+ nucleoli phenotype percent effect” value in the data set with MCF10A [3] was -45.8%.
Turning to CUGCAAAGGGAAGCCCUUUC [hsa-miR-527], the percent viability in the data set with MCF10A [1] was found to be 32.8%. Besides, the “one-nucleolus phenotype percent effect” value with MCF10A [2] was found to be 46.6%. The “5+ nucleoli phenotype percent effect” value with MCF10A [3] is -41.4%.
For “CUGCAAUGUAAGCACUUCUUAC [hsa-miR-106a-3p]”, in that order: 72.6%, 18.7% and -24.5%.
For “CUGCAGACUCGACCUCCCAGGC [hsa-miR-1273h-3p]” the same measures were 41.7%, 13.6% and -28.5%.
For “CUGCAGAGUUUGUACGGACCGG [hsa-miR-3678-3p]” the same measures were 66.6%, 10.8% and -37.4%.
For “CUGCAGCCACUUGGGGAACUGGU [hsa-miR-7156-3p]”, in the data set on MCF10A [1], the percent viability amounted to 57.4%. Also, the “one-nucleolus phenotype percent effect” value with MCF10A [2] amounted to 8.88%. Besides, the “5+ nucleoli phenotype percent effect” value in the data set with MCF10A [3] was -7.7%.
For “CUGCAGGCAGAAGUGGGGCUGACA [hsa-miR-6511b-5p]” the same measures were 27.4%, 39.6% and -9.29%.
For CUGCCAGCCCCGUUCCAGGGCA [hsa-miR-3972], in that order: 42.9%, -2.85% and -1.63%.
For “CUGCCAUGUCUAAGAAGAAAAC [hsa-miR-4659a-5p]” the same measures were 68.5%, -12.3% and -0.515%.
As for “CUGCCCUAGUCUAGCUGAAGCU [hsa-miR-3157-3p]”, the percent viability in the data set with MCF10A [1] was 170%. Further, the “one-nucleolus phenotype percent effect” value in the data set with MCF10A [2] was -21.2%. Moreover, the “5+ nucleoli phenotype percent effect” value in the data set with MCF10A [3] amounted to 27.8%.
Turning to CUGCCCUGGCCCGAGGGACCGA [hsa-miR-874], the percent viability with MCF10A [1] amounted to 62.9%. For the same sequence, the “one-nucleolus phenotype percent effect” value with MCF10A [2] amounted to 4.65%. Moreover, the “5+ nucleoli phenotype percent effect” value with MCF10A [3] is -5.29%.
For CUGCCUGUUCUUCCACUCCAG [hsa-miR-6514-3p], in that order: 9.75%, 59.9% and -62.1%.
Consider CUGCGCAAGCUACUGCCUUGCU [hsa-let-7i-3p], for which the percent viability in the data set on MCF10A [1] stood at 110%. Also, the “one-nucleolus phenotype percent effect” value with MCF10A [2] is -4.21%. Further, in the data set with MCF10A [3], the “5+ nucleoli phenotype percent effect” value was determined as 0.0505%.
For CUGGACUGAGCCAUGCUACUGG [hsa-miR-1269b], in that order: 60.9%, 2.22% and 18.3%.
For CUGGACUGAGCCGUGCUACUGG [hsa-miR-1269a] the same measures were 52.7%, 6.41% and -26.1%.
